Test results taken from patent US20070248607A1, “NEGATIVE IMMUNOMODULATION OF IMMUNE RESPONSES BY NKG2D-POSITIVE CD4+ CELLS” (priority 2005, published 2007).
Where a chain is given by its changes, count along the chain named. Names may count otherwise. “Also recorded” adds a separate entry of the source. Peptide text beside a SMILES is read from it.

Key:
[1] = tested on: sMICA shedding by Hela and A375 cells; test: Shedding of sMICA by tumor cell lines, ELISA for sMICA; type: cell-based; details: pharmacological inhibitors; U266, Hela, A375, HCT116 and Lovo cells; concentration-dependent; ELISA
[2] = target: T1, MICA tetramer (recombinant MICA*001, residues 1-276, produced in transfected 293T cells, conjugated with … (human, UniProt Q29983 24-299, highly glycosylated (293T cells); conjugated with PE-streptavidin); test: flow cytometry, PE-streptavidin tetramers on NKL cells
T1 construct: Tags from the Invitrogen expression system are not described; also called MICA tetramers; MICA ligand tetramers
T1 sequence: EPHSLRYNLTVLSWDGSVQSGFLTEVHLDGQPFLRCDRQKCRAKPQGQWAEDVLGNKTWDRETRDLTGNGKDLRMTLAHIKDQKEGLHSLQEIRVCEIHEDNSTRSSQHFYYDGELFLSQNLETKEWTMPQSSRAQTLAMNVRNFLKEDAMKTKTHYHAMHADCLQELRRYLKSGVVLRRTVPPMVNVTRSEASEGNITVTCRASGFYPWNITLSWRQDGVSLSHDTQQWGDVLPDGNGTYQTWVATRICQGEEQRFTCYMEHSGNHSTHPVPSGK

NKG2D+ CD4+ T cells = test: NKG2D expression and expansion of activated CD4 T cells; type: cell-based; details: anti-CD3 activated CD4 T cell cultures
Method: For the analysis of NKG2D expression in activated CD4 T cells, freshly isolated pure CD4^+ T cells were plated at 0.3×10^6/2 ml AIM-V medium (Gibco)/well in 24 well plates for various periods of time with or without the presence of mitogenic stimuli and/or the presence of NKG2D ligands. Mitogenic stimuli included either cross-linked anti-CD3 (plates were first coated with AffiniPure F(ab′)2 fragment goat anti-mouse IgG1, Fcγ fragment specific (Jackson ImmunoResearch Laboratories, Inc.) at 10 μg/ml in PBS over night at 4° C. followed by a 4 hr room temperature incubation with anti-CD3 (OKT3, Orthoclone, Ortho Biotech Products, L.P.) at 50 ng/ml (if not indicated otherwise), PHA (5 μg/ml), or PMA/Ionomycin. Ligand additions consisted of either irradiated CLR-MICA and control transfectants at a T cell:transfectant ratio of 5:1, or recombinant soluble MICA at 25 ng/ml if not indicated otherwise. Cells were harvested at various time points after the initiation of culture and tested for NKG2D, CD4 and CD3 coexpression using directly conjugated mAbs for standard three color flow cytometry.
(§1) For analysis of CD4^+ T cell proliferation in conjunction with NKG2D expression, 1×10^7 freshly isolated pure CD4^+ T cells/ml PBS were labeled with an equal volume of 2 μM CFSE (Molecular Probes) for 8 min at room temperature. CFSE was quenched with an equal volume of fetal calf serum for one min followed by three washes with AIM-V medium. CFSE labeled cells were then plated, stimulated and phenotypically analysed as described above. Additional ligands tested in this experimental setting included any of either C1R-MICB, ULBP-1, -2, -3, 4, or -5 transfectants, recombinant soluble MICB, or 5% soluble MIC containing serum from a MIC+ tumor patient and MIC− control serum. To test ligand specificity, ligand containing cultures were treated with either 10 μg/ml 6D4 (anti-MICA/B), 10 μg/ml 3F1 (anti-ULBP-1), or appropriately diluted isotype control immunoglobulins. In some experiments, ligand was replaced by solid-phase anti-NKG2D (1D11) at the concentrations ranging from 5-50 ng/ml. In some experiments, ligand/solid-phase mAb were added on day 1, 2 or 3 after the initiation of culture.

NKG2D- CD4+ T cells = test: CD4 T cell proliferation (CFSE dilution, [3H]thymidine incorporation); type: cell-based; details: anti-CD3 activated CD4 T cell cultures
Method: as §1
To assess inhibition of CD4^+ T cell proliferation by standard [^3H]thymidine incorporation experiments, freshly isolated pure CD4^+ T cells were plated at 1×10^5 cells/well in a 96 well flat bottom plate containing titrated cross-linked anti-CD3 (see above) or isotype control Ig with or without titrated recombinant soluble MIC. After 72 hrs at 37° C., plates were pulsed with 3 μCi of [^3H]thymidine (Perkin Elmer) for 12 hrs. Plates were harvested and samples analysed by liquid scintillation using Uni-Filter GF/C plates and a TopCount Counter (both from Packard). Counts from triplicates were averaged.

[3] = target: T2, recombinant soluble MICA (rsMICA), unglycosylated, produced in bacteria; ectodomain-only MICA
T2 chain: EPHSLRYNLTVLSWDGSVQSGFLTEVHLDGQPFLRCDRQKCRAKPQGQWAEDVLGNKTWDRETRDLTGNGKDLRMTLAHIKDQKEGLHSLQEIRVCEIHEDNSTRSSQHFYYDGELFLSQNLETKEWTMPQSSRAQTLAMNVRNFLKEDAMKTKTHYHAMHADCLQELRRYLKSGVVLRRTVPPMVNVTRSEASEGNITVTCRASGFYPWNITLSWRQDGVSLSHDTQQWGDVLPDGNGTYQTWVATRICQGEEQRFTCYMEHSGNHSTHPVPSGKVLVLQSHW

[4] = target: the molecule itself; test: size exclusion chromatography (self-association)
MICA [5] = target: T3, MICA (Homo sapiens, UniProt Q29983); test: ERP5 activity assay, disulfide reduction (non-reducing SDS-PAGE); type: biochemical; details: ectodomain MICA substrate, room temperature, 1 h or 3 h, no reducing agent
T3 sequence (Q29983 24-299): T1 sequence

MICA [6] = target: T4, MICA (Homo sapiens, UniProt Q29983); test: as above; type: biochemical; details: isolated α3 domain (residues 187-274)
T4 sequence (Q29983 210-297): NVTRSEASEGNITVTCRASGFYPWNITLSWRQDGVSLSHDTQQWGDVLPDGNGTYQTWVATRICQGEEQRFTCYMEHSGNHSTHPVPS

CC[C@H](C)[C@H](N)C1=N[C@H](C(=O)N[C@@H](CC(C)C)C(=O)N[C@H](CCC(=O)O)C(=O)N[C@H](C(=O)N[C@H]2CCCCNC(=O)[C@H](CC(N)=O)NC(=O)[C@@H](CC(=O)O)NC(=O)[C@H](Cc3cnc[nH]3)NC(=O)[C@@H](Cc3ccccc3)NC(=O)[C@H]([C@@H](C)CC)NC(=O)[C@@H](CCCN)NC2=O)[C@@H](C)CC)CS1 [bacitracin] (HELM PEPTIDE1{[CC[C@H](C)[C@H](N)C1=N[C@H](C(=O)[*:2])CS1].L.[dE].I.K.[NCCC[C@@H](N[*:1])C(=O)[*:2]].I.[dF].H.[dD].N}$PEPTIDE1,PEPTIDE1,5:R3-11:R2$$$V2.0)
shedding of sMICA [1]: markedly reduced; also recorded: Inhibition of sMICA shedding; also recorded: reduce shedding of sMICA

O=C(O)c1cc(SSc2ccc([N+](=O)[O-])c(C(=O)O)c2)ccc1[N+](=O)[O-] [DTNB, 5,5-dithiobis-(2-nitrobenzoic acid)]
shedding of sMICA [1]: markedly reduced; also recorded: Inhibition of sMICA shedding; also recorded: reduce shedding of sMICA

B1: NKG2D (on NKL NK cells and on CD4+ T cells) (receptor, human, UniProt P26718 1-216, looked up)
chain: MGWIRGRRSRHSWEMSEFHNYNLDLKKSDFSTRWQKQRCPVVKSKCRENASPFFFCCFIAVAMGIRFIIMVTIWSAVFLNSLFNQEVQIPLTESYCGPCPKNWICYKNNCYQFFDESKNWYESQASCMSQNASLLKVYSKEDQDLLKLVKSYHWMGLVHIPTNGSWQWEDGSILSPNLLTIIEMQKGDCALYASSFKGYIENCSTPNTYICMQRTV
notes: whole, on cells; also called NKG2D receptor
binding result [2]: binds

B2: soluble MIC: recombinant soluble MIC ligand of NKG2D (protein)
chain: T1 sequence
expansion / proliferation of NKG2D+ CD4+ T cells (NKG2D+ CD4+ T cells): enhanced
proliferation of NKG2D- CD4+ T cells (NKG2D- CD4+ T cells): dramatically inhibited

B3: soluble MICB: recombinant soluble MICB, NKG2D ligand (protein)
chain: EPHSLRYNLMVLSQDGSVQSGFLAEGHLDGQPFLRYDRQKRRAKPQGQWAEDVLGAETWDTETEDLTENGQDLRRTLTHIKDQKGGLHSLQEIRVCEIHEDSSTRGSRHFYYNGELFLSQNLETQESTVPQSSRAQTLAMNVTNFWKEDAMKTKTHYRAMQADCLQKLQRYLKSGVAIRRTVPPMVNVTCSEVSEGNITVTCRASSFYPRNITLTWRQDGVSLSHNTQQWGDVLPDGNGTYQTWVATRIRQGEEQRFTCYMEHSGNHGTHPVPSGK
proliferation of NKG2D- CD4+ T cells (NKG2D- CD4+ T cells): Growth inhibition

B4: ERP5 fragment 1-118 (N-terminal thioredoxin-like domain), bacterially produced, N-terminal hexahistidine (enzyme, UniProt Q15084 20-137, looked up)
chain: LYSSSDDVIELTPSNFNREVIQSDSLWLVEFYAPWCGHCQRLTPEWKKAATALKDVVKVGAVDADKHHSLGGQYGVQGFPTIKIFGSNKNRPEDYQGGRTGEAIVDAALSALRQLVKD
notes: Numbers count on the mature protein; also called N-terminal ERP5 polypeptide fragment; not shown: N-terminal hexahistidine tract
disulfide bond reduction of MICA (non-reducing SDS-PAGE) [3]: only the N-terminal domain displayed functional activity
binding result [4]: no binding

B5: ERP5 fragment 1-118: N-terminal thioredoxin-like domain fragment of ERP5, residues 1-118 (protein)
chain: B4 chain
modifications: left off: small tags and cut ends
reduction of MICA disulfide bonds (MICA [5]): partially reduced

B6: ERP5 fragment 1-118 C36S mutant (protein)
chain: B4 chain with C36S
disulfide bond reduction of MICA (non-reducing SDS-PAGE) [3]: C36S showed no activity on MICA substrate

B7: C39S: C39S active site mutant of ERP5 fragment 1-118 (protein)
chain: B4 chain with C39S
modifications: left off: small tags and cut ends
reduction of the MICA α3 domain disulfide bond (MICA [6]; listed as ERP5 1-118 C39S mutant polypeptide): reduces the α3 domain disulfide bond of MICA
reduction of the MICA α3 domain disulfide bond (MICA [6]; listed as ERP5 1-118 polypeptide fragment with the C39S mutation): unresolved mixed disulfide heterodimer
reduction of MICA disulfide bonds (MICA [5]): formed a trapped disulfide-linked intermediate
reduction of MICA disulfide bonds (MICA [5]; listed as C39S mutant of ERP5 fragment 1-118): disulfide-linked heterodimers

B8: C36S: C36S active site mutant of ERP5 fragment 1-118 (protein)
chain: B4 chain with C36S
modifications: left off: small tags and cut ends
reduction of MICA disulfide bonds (MICA [5]): no activity

B9: ERP5 fragment 135-421, bacterially produced, N-terminal hexahistidine (enzyme, UniProt Q15084 154-440, looked up)
chain: SDSSSKKDVIELTDDSFDKNVLDSEDVWMVEFYAPWCGHCKNLEPEWAAAASEVKEQTKGKVKLAAVDATVNQVLASRYGIRGFPTIKIFQKGESPVDYDGGRTRSDIVSRALDLFSDNAPPPELLEIINEDIAKRTCEEHQLCVVAVLPHILDTGAAGRNSYLEVLLKLADKYKKKMWGWLWTEAGAQSELETALGIGGFGYPAMAAINARKMKFALLKGSFSEQGINEFLRELSFGRGSTAPVGGGAFPTIVEREPWDGRDGELPVEDDIDLSDVELDDLGKDEL
notes: range 135-421; Numbers count on the mature protein; also called ERP5 135-421; not shown: N-terminal hexahistidine tract
disulfide bond reduction of MICA (non-reducing SDS-PAGE) [3]: only the N-terminal domain displayed functional activity
binding result [4]: no binding
